Data taken from patent US20250320288A1, “METHOD OF TREATING VITILIGO WITH INTERFERON-GAMMA ANTIBODY” (Elixiron Immunotherapeutics (Hong Kong), priority 2022, published 2025).
Entries after “also recorded” stand apart in the source; their conditions may differ.

Experiments:
[1] = tested on: CXCR3 expression on CD8+ T cells; assay: CXCR3 expression on CD8+ T cells of activated PBMCs (flow cytometry); assay type: cell-based, human; conditions: 3 individual donors
Procedure: (§1) Materials and methods: PBMCs from healthy adult donors were isolated from whole blood using Ficoll-Paque density gradient centrifugation. PBMCs were cultured in a humidified 37° C. incubator for 24 hours in RPMI-1640 culture medium supplemented with 5% human serum, and standard antibiotics, 2-ME and HEPES. PBMCs were then seeded at 1×10^6 cells/well with 1 mL fresh culture medium/well in a 24-well plate and stimulated by mixing cells with human T cell TransAct (1:200). Antibodies indicated in the Results were then added and mixed well. After 2 days of culture, PBMCs were collected, washed with PBS three times, re-suspended in culture medium and re-cultured with indicated antibodies for an additional 2 days.
(§2) PBMCs were treated as required (see above) and then harvested for flow cytometry antibody staining, using anti-human CD4, anti-human CD8, anti-human CD56 and anti-human CXCR3 antibodies for 30 minutes on ice in the dark. PBMCs were then washed twice with FACS buffer and the expression of CXCR3 determined by flow cytometry using an Attune NxT flow cytometry. Flow cytometry data analysis was performed using FlowJo software.

[2] = tested on: CXCR3 expression on CD4+ T cells; assay: CXCR3 expression on CD4+ T cells of activated PBMCs (flow cytometry); assay type: cell-based, human; conditions: 3 individual donors
Procedure: as §1, §2

[3] = tested on: melanocytes; assay: Intracellular ROS in melanocytes (CM-H2DCFDA); assay type: cell-based, human; conditions: melanocytes
Procedure: Materials and methods: For intracellular ROS measurement, melanocytes were washed with PBS and incubated with 20 μM CM-H2DCFDA (Invitrogen) for 30 min at 37° C. in the dark. The cells were resuspended with PBS and examined with flow cytometry at an excitation wavelength of 488 nm and an emission wavelength of 530 nm; the data were analyzed with FlowJo.

[4] = tested on: MITF; assay: Melanin regulators in melanocytes (RNA sequencing, MITF immunoblot); assay type: cell-based, human; conditions: melanocytes
Source text: (§3) Total RNA was extracted from melanocytes with an RNA purification kit (Zymo Research, r2050). After RNA samples were extracted from primary melanocytes and melanocytes cell line (Gibco), the samples were sent to Biotools Co., Ltd Taiwan for RNA sequence. The RNA quality was examined by Agilent Technologies 2100 Bio-analyzer with an RNA integrity value greater than 8. After rRNA depletion (Epicenter), RNA fragmentation, and library preparation (Illumina), the constructed libraries were then performed 150 bp paired-end sequencing by an Illumina NovaSeq6000 sequencer. The results from each sample were aligned to the GRCh38 genome by the HISAT2 software and analyzed by Biotools Co., Ltd Taiwan.
(§4) Cells were washed in PBS and lysed in RIPA lysis buffer with proteases inhibitor and Phenylmethanesulfonyl fluoride (PMSF; Sigma-Aldrich, P7626). The total cell lysates were sonicated and centrifuged at 4° C., 13000 rpm for 30 min. Protein concentration was quantified using the Bradford assay. The total cell lysates were separated by SDS-PAGE and transferred to a PVDF membrane. The membrane was blocked with 5% BSA or 5% milk in TBST for 1 hour at room temperature and incubated with primary antibodies overnight at 4° C. and HRP-conjugated secondary antibodies for hour at room temperature. The protein was visualized by Thermo ibright1500. Primary antibodies were follows: anti-human SLC7A11 (CST, 12691), anti-human SLC3A2 (CST, 13180), anti-IRF1 (CST, 8478), anti-MITF (CST, 12590), and anti-GAPDH (Abcam, ab8245).

[5] = tested on: SLC7A11; assay: Ferroptosis regulators in melanocytes (RNA sequencing, SLC7A11 immunoblot); assay type: cell-based, human; conditions: melanocytes
Source text: as §3, §4

[6] = molecular target: T1, recombinant human IFN-γ (Homo sapiens, UniProt P01579); assay: EI-001 neutralization of IFN-γ, restoration of melanocyte melanogenesis; assay type: cell-based; conditions: addition of 2A6Q
T1 sequence (P01579 24-161 limits assumed): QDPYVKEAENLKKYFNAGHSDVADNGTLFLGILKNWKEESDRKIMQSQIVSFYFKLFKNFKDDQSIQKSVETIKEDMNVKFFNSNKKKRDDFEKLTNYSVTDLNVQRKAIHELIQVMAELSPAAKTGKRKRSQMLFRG
Procedure: Materials and methods: To examine the dose-dependency of IFN-γ inhibition of HEMn-DP cell melanogenesis, HEMn-DP cells were seeded into a 24-well plate at a concentration of 200,000 cells/well in 1 mL assay medium (M254 supplemented with 1× HMGS, 10 ng/mL PMA plus Penicillin-Streptomycin) with serial dilutions of IFN-γ, followed by incubation at 37° C. for 7 days. The cell assay medium was replaced by fresh medium with serially titrated concentrations of IFN-γ on day 3 and day 5. On day 7, cells were first washed with PBS twice, lysed in 250 μL of 1N NaOH/10% DMSO solution, then incubated at 80° C. for 1 hr. After lysis, each lysate was transfer to 96 well plate, and absorbance of melanin was then measured at […]. The relative melanin quantity was normalized with cell viability of each sample which was measured by CellTiter-Glo kit, and data were analyzed using nonlinear regression curve fit using GraphPad Prism7. To determine the potency of EI-001, HEMn-DP cells were seeded as previously described, and IFN-γ pre-incubated with indicated amounts of EI-001 for 25 min in 1 mL of assay medium. After incubation, the mixture was added to each well (final IFN-γ concentration is 20 ng/ml). Melanin content of melanocytes was determined as previously described.

[7] = tested on: melanocytes; assay: Lipid peroxidation in melanocytes (BODIPY 581/591 C11); assay type: cell-based, human; conditions: melanocytes
Procedure: For lipid peroxidation examination, melanocyte cells were seeded in a 6-well plate and treated with IFN-γ the next day. Melanocytes were washed with PBS and incubated with Hanks balanced salt solution (HBSS, Gibco) containing 5 μM BODIPY 581/591 C11 (Invitrogen, D3861) and incubated for 15 minutes at 37° C. in a tissue culture incubator. The cells were resuspended with fresh HBSS and examined with flow cytometry; the data were analyzed with FlowJo.

[8] = tested on: melanocytes; assay: Melanocyte apoptosis, Annexin V / 7AAD flow cytometry; assay type: cell-based, human; conditions: 2A6Q 10 μg/mL
Procedure: Materials and methods: Melanocyte cell apoptosis was detected with Annexin V (BD, 550474) and 7AAD (1 mg/mL, Sigma A9400-1 MG). The cells were detached and resuspended with […] binding buffer (BD, 556454) containing Annexin V and 7AAD for 15 min at room temperature in the dark. Before analysis, cells were added to a […] binding buffer and immediately analyzed a on a flow cytometer (Verse BD).

B1: EI-001: human monoclonal anti-IFN-γ neutralizing antibody; VH SEQ ID NO: 165, VL SEQ ID NO: 113; N76Q removes VH glycosylation site (antibody, listed as Homo sapiens, V domains shown)
VH: EVQLVESGGGLVKPGDSLTVSCVASGFTFSNYFIHWVRQAPGKGLEWVATISGRTKYMFYSDSLRGRFTVSRDNAQNSVYLHMSSLRGEDTALYYCVRGYDHSDSNSAADLLHWGRGTLVTVSS
VL: NFMLTQPLSVSGYPGKTIVISCVRSSGSVASHYVQWFQQRPGSAPAMVIYEDSHRPSGIPDRFSGSVDASSNSASLTISGLKTEDEADYFCQSYYGNNQVLFGGGTKLTVL
modifications: Recombinant variant antibody sequence
notes: human monoclonal anti-IFN-γ neutralizing antibody; N76Q removes VH glycosylation site
[1]
  IC50 of EI-001 to inhibit CXCR3 expression on CD8+ T cells: 1.029 to 6.941 µg/mL
[2]
  IC50 of EI-001 to inhibit CXCR3 expression on CD4+ T cells: 0.279 to 1.313 µg/mL
[3]
  reversal of IFN-γ induced ROS / cellular oxidative stress: reverses the ROS
[4]
  reversal of IFN-γ induced downregulation of MITF: reverses
[5]
  reversal of ferroptosis as demonstrated by SLC7A11: reverses ferroptosis
[6]
  rescue of IFN-γ induced decrease in melanin content: can be rescued; also recorded: reverses
[7]
  reversal of IFN-γ induced lipid peroxidation: reverses
[8]
  reversal of IFN-γ induced early phase apoptosis: managed to reverse the apoptosis; also recorded: reverses
